# Results: patent US20210388087A1 (Chugai, published 2021)
# Changes are numbered by the printed parent chain.
# B1: CE115HA000/GLS3000 N28Q (antibody, IgG1, name in Kabat numbering, V domains shown)
# VH: QVQLVESGGGVVQPGRSLRLSCAASGFTFSNAWMHWVRQAPGKGLEWVAQIKAKSNNYATYYAESVKGRFTISRDDSKNSLYLQMNSLKTEDTAVYYCRYVHYGAYYGVDAWGQGTTVTVSS
# VL: DIVMTQSPLSLPVTPGEPASISCRSSQSLVHSQRNTYLHWYQQKPGQAPRLLIYKVSNRFSGVPDRFSGSGSGTDFTLKISRVEAEDVGVYYCGQGTQVPYTFGQGTKLEIK
# notes: one-arm IgG1
# B2: CE115HA000/GLS3000 P95G (antibody, IgG1, name in Kabat numbering, V domains shown)
# VH: B1 VH
# VL: B1 VL with Q33N, P100G
# notes: one-arm IgG1
# B3: CE115HA000/GLS3000 N30H (antibody, IgG1, name in Kabat numbering, V domains shown)
# VH: B1 VH
# VL: B1 VL with Q33N, N35H
# notes: one-arm IgG1
# B4: CE115HA000/GLS3000 N28Y (antibody, IgG1, name in Kabat numbering, V domains shown)
# VH: B1 VH
# VL: B1 VL with Q33Y
# notes: one-arm IgG1
# B5: CE115HA000/GLS3000 N30E (antibody, IgG1, name in Kabat numbering, V domains shown)
# VH: B1 VH
# VL: B1 VL with Q33N, N35E
# notes: one-arm IgG1
# B6: CE115HA000/GLS3000 N28T (antibody, IgG1, name in Kabat numbering, V domains shown)
# VH: B1 VH
# VL: B1 VL with Q33T
# notes: one-arm IgG1
# B7: CE115HA000/GLS3000 N53Q (antibody, IgG1, name in Kabat numbering, V domains shown)
# VH: B1 VH
# VL: B1 VL with Q33N, N58Q
# notes: one-arm IgG1
# B8: CE115HA000/GLS3000 N53D (antibody, IgG1, name in Kabat numbering, V domains shown)
# VH: B1 VH
# VL: B1 VL with Q33N, N58D
# notes: one-arm IgG1
# B9: CE115HA000/GLS3000 N53R (antibody, IgG1, name in Kabat numbering, V domains shown)
# VH: B1 VH
# VL: B1 VL with Q33N, N58R
# notes: one-arm IgG1
# B10: CE115HA000/GLS3000 N53Y (antibody, IgG1, name in Kabat numbering, V domains shown)
# VH: B1 VH
# VL: B1 VL with Q33N, N58Y
# notes: one-arm IgG1
# B11: CE115HA000/GLS3000 N30D (antibody, IgG1, name in Kabat numbering, V domains shown)
# VH: B1 VH
# VL: B1 VL with Q33N, N35D
# notes: one-arm IgG1
# B12: CE115HA000/GLS3000 P95D (antibody, IgG1, name in Kabat numbering, V domains shown)
# VH: B1 VH
# VL: B1 VL with Q33N, P100D
# notes: one-arm IgG1
# B13: CE115HA000/GLS3000 N30A (antibody, IgG1, name in Kabat numbering, V domains shown)
# VH: B1 VH
# VL: B1 VL with Q33N, N35A
# notes: one-arm IgG1
# B14: CE115HA000/GLS3000 N53F (antibody, IgG1, name in Kabat numbering, V domains shown)
# VH: B1 VH
# VL: B1 VL with Q33N, N58F
# notes: one-arm IgG1
# B15: CE115HA000/GLS3000 N53G (antibody, IgG1, name in Kabat numbering, V domains shown)
# VH: B1 VH
# VL: B1 VL with Q33N, N58G
# notes: one-arm IgG1
# B16: CE115HA000/GLS3000 N30V (antibody, IgG1, name in Kabat numbering, V domains shown)
# VH: B1 VH
# VL: B1 VL with Q33N, N35V
# notes: one-arm IgG1
# B17: CE115HA000/GLS3000 N30T (antibody, IgG1, name in Kabat numbering, V domains shown)
# VH: B1 VH
# VL: B1 VL with Q33N, N35T
# notes: one-arm IgG1
# B18: CE115HA000/GLS3000 N30P (antibody, IgG1, name in Kabat numbering, V domains shown)
# VH: B1 VH
# VL: B1 VL with Q33N, N35P
# notes: one-arm IgG1
# B19: CE115HA000/GLS3000 N30Q (antibody, IgG1, name in Kabat numbering, V domains shown)
# VH: B1 VH
# VL: B1 VL with Q33N, N35Q
# notes: one-arm IgG1
# B20: CE115HA000/GLS3000 N53P (antibody, IgG1, name in Kabat numbering, V domains shown)
# VH: B1 VH
# VL: B1 VL with Q33N, N58P
# notes: one-arm IgG1
# B21: CE115HA000/GLS3000 P95S (antibody, IgG1, name in Kabat numbering, V domains shown)
# VH: B1 VH
# VL: B1 VL with Q33N, P100S
# notes: one-arm IgG1
# B22: CE115HA000/GLS3000 N30K (antibody, IgG1, name in Kabat numbering, V domains shown)
# VH: B1 VH
# VL: B1 VL with Q33N, N35K
# notes: one-arm IgG1
# B23: CE115HA000/GLS3000 N28W (antibody, IgG1, name in Kabat numbering, V domains shown)
# VH: B1 VH
# VL: B1 VL with Q33W
# notes: one-arm IgG1
# B24: CE115HA000/GLS3000 N53A (antibody, IgG1, name in Kabat numbering, V domains shown)
# VH: B1 VH
# VL: B1 VL with Q33N, N58A
# notes: one-arm IgG1
# B25: CE115HA000/GLS3000 N30M (antibody, IgG1, name in Kabat numbering, V domains shown)
# VH: B1 VH
# VL: B1 VL with Q33N, N35M
# notes: one-arm IgG1
# B26: CE115HA000/GLS3000 N53L (antibody, IgG1, name in Kabat numbering, V domains shown)
# VH: B1 VH
# VL: B1 VL with Q33N, N58L
# notes: one-arm IgG1
# B27: CE115HA000/GLS3000 N30R (antibody, IgG1, name in Kabat numbering, V domains shown)
# VH: B1 VH
# VL: B1 VL with Q33N, N35R
# notes: one-arm IgG1
# B28: CE115HA000/GLS3000 N53K (antibody, IgG1, name in Kabat numbering, V domains shown)
# VH: B1 VH
# VL: B1 VL with Q33N, N58K
# notes: one-arm IgG1
# B29: CE115HA000/GLS3000 N53W (antibody, IgG1, name in Kabat numbering, V domains shown)
# VH: B1 VH
# VL: B1 VL with Q33N, N58W
# notes: one-arm IgG1
# B30: CE115HA000/GLS3000 N53I (antibody, IgG1, name in Kabat numbering, V domains shown)
# VH: B1 VH
# VL: B1 VL with Q33N, N58I
# notes: one-arm IgG1
# B31: CE115HA000/GLS3000 N53H (antibody, IgG1, name in Kabat numbering, V domains shown)
# VH: B1 VH
# VL: B1 VL with Q33N, N58H
# notes: one-arm IgG1
# B32: CE115HA000/GLS3000 N53T (antibody, IgG1, name in Kabat numbering, V domains shown)
# VH: B1 VH
# VL: B1 VL with Q33N, N58T
# notes: one-arm IgG1
# B33: CE115HA000/GLS3000 P95E (antibody, IgG1, name in Kabat numbering, V domains shown)
# VH: B1 VH
# VL: B1 VL with Q33N, P100E
# notes: one-arm IgG1
# B34: CE115HA000/GLS3000 N28V (antibody, IgG1, name in Kabat numbering, V domains shown)
# VH: B1 VH
# VL: B1 VL with Q33V
# notes: one-arm IgG1
# B35: CE115HA000/GLS3000 N53E (antibody, IgG1, name in Kabat numbering, V domains shown)
# VH: B1 VH
# VL: B1 VL with Q33N, N58E
# notes: one-arm IgG1
# B36: CE115HA000/GLS3000 N53M (antibody, IgG1, name in Kabat numbering, V domains shown)
# VH: B1 VH
# VL: B1 VL with Q33N, N58M
# notes: one-arm IgG1
# B37: CE115HA000/GLS3000 N30L (antibody, IgG1, name in Kabat numbering, V domains shown)
# VH: B1 VH
# VL: B1 VL with Q33N, N35L
# notes: one-arm IgG1
# B38: CE115HA000/GLS3000 P95L (antibody, IgG1, name in Kabat numbering, V domains shown)
# VH: B1 VH
# VL: B1 VL with Q33N, P100L
# notes: one-arm IgG1
# B39: CE115HA000/GLS3000 N30Y (antibody, IgG1, name in Kabat numbering, V domains shown)
# VH: B1 VH
# VL: B1 VL with Q33N, N35Y
# notes: one-arm IgG1
# B40: CE115HA000/GLS3000 N30G (antibody, IgG1, name in Kabat numbering, V domains shown)
# VH: B1 VH
# VL: B1 VL with Q33N, N35G
# notes: one-arm IgG1
# B41: CE115HA000/GLS3000 P95A (antibody, IgG1, name in Kabat numbering, V domains shown)
# VH: B1 VH
# VL: B1 VL with Q33N, P100A
# notes: one-arm IgG1
# B42: CE115HA000/GLS3000 N28S (antibody, IgG1, name in Kabat numbering, V domains shown)
# VH: B1 VH
# VL: B1 VL with Q33S
# notes: one-arm IgG1
# B43: CE115HA000/GLS3000 N30S (antibody, IgG1, name in Kabat numbering, V domains shown)
# VH: B1 VH
# VL: B1 VL with Q33N, N35S
# notes: one-arm IgG1
# B44: CE115HA000/GLS3000 N30I (antibody, IgG1, name in Kabat numbering, V domains shown)
# VH: B1 VH
# VL: B1 VL with Q33N, N35I
# notes: one-arm IgG1
# B45: CE115HA000/GLS3000 N53V (antibody, IgG1, name in Kabat numbering, V domains shown)
# VH: B1 VH
# VL: B1 VL with Q33N, N58V
# notes: one-arm IgG1
# B46: CE115HA000/GLS3000 N53S (antibody, IgG1, name in Kabat numbering, V domains shown)
# VH: B1 VH
# VL: B1 VL with Q33N, N58S
# notes: one-arm IgG1
# B47: CE115HA000/GLS3000 N30W (antibody, IgG1, name in Kabat numbering, V domains shown)
# VH: B1 VH
# VL: B1 VL with Q33N, N35W
# notes: one-arm IgG1
# Target: T1, CD3 epsilon homodimer protein (UniProt P07766 23-126)
# T1 construct: also called CD3 (CD3 epsilon)
# T1 sequence (P07766 23-126): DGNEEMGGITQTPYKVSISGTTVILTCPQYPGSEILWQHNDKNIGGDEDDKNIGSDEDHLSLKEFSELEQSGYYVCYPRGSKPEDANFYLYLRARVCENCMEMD
# Assay: SPR, antibody over immobilised CD3e homodimer;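 note: SPR at 25 °C with CD3 epsilon homodimer amine-coupled to a CM4 sensor chip and antibody flowed over as analyte in HBS-EP+ running buffer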
# Method: An appropriate amount of CD3 epsilon homodimer protein was immobilized onto Sensor chip CM4 (GE Healthcare Japan Corp.) by the amine coupling method. Then, the antibody having an appropriate concentration was injected thereto as an analyte and allowed to interact with the CD3 epsilon homodimer protein on the sensor chip. Then, the sensor chip was regenerated by the injection of 10 mmol/L glycine-HCl (pH 1.5). The assay was conducted at 25 degrees C., and HBS-EP+(GE Healthcare Japan Corp.) was used as a running buffer. […] Each parameter was calculated using Biacore T200 Evaluation Software (GE Healthcare Japan Corp.).
row,Binder,KD ratio to GLS3000
1,B1,3.48
2,B2,1.94
3,B3,1.08
4,B4,3.89
5,B5,2.83
6,B6,2.67
7,B7,1.28
8,B8,2.8
9,B9,1.56
10,B10,0.99
11,B11,3.82
12,B12,2.37
13,B13,1.16
14,B14,0.96
15,B15,1.33
16,B16,2.62
17,B17,12.7
18,B18,12.1
19,B19,1
20,B20,0.98
21,B21,1.19
22,B22,1.35
23,B23,3.17
24,B24,0.82

row,Binder,KD ratio to GLS3000
1,B25,1.2
2,B26,1.62
3,B27,1.73
4,B28,1.05
5,B29,1.01
6,B30,2.69
7,B31,1.31
8,B32,2.68
9,B33,1.01
10,B34,3.73
11,B35,2.47
12,B36,1.21
13,B37,1.19
14,B38,11.7
15,B39,1.03
16,B40,2.1
17,B41,0.87
18,B42,4.3
19,B43,10.6
20,B44,1.24
21,B45,2.14
22,B46,0.88
23,B47,0.97
